# T1: GST-LuxR (Vibrio harveyi, UniProt P21308 1-205)
# T1 sequence: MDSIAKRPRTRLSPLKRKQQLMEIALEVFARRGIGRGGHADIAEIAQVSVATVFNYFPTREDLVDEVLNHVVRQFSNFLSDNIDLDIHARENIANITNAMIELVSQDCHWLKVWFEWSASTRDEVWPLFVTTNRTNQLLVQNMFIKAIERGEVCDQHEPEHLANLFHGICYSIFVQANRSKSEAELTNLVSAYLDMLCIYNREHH
# B1: V. harveyi consensus LuxR binding sequence (dsDNA)
# DNA 1: TATTGATAAATTTATCAATAA
# DNA 2: TTATTGATAAATTTATCAATA
# Molecular target: T1, GST-LuxR
# Assay: fluorescence anisotropy; no thiophenone; Kd value only in Figure 4B; 30°C; annealing in NaCl-Tris-EDTA buffer; binding buffer, salt and pH not stated (as in ref 37); ex 480 nm, em 535 nm
# Details: protein: recombinant; chain copies: 2; label: 5'-fluorescein on strand 1; blunt
binder,measurement,value
B1,binding result,binds
